Data as given in the PETadex activity labels (doi:10.1042/bj3320075).

Experiments:
Details in all cases: pH 7.1; 25 °C
p-NP-C2 = substrate: p-NP-C2
p-NP-C3 = substrate: p-NP-C3
p-NP-C4 = substrate: p-NP-C4
p-NP-C5 = substrate: p-NP-C5
p-NP-C6 = substrate: p-NP-C6
p-NP-C8 = substrate: p-NP-C8

B1: unnamed (protein)
chain: MKPENKLPVLDLISAEMKTVVNTLQPDLPPWPATGTIAEQRQYYTLERRFWNAGAPEMATRAYMVPTKYGQVETRLFCPQPDSPATLFYLHGGGFILGNLDTHDRIMRLLASYSQCTVIGIDYTLSPEARFPQAIEEIVAACCYFHQQAEDYQINMSRIGFAGDSAGAMLALASALWLRDKQIDCGKVAGVLLWYGLYGLRDSVTRRLLGGVWDGLTQQDLQMYEEAYLSNDADRESPYYCLFNNDLTREVPPCFIAGAEFDPLLDDSRLLYQTLAAHQQPCEFKLYPGTLHAFLHYSRMMKTADEALRDGAQFFTAQL
Km (p-NP-C2): 1.5 mM | kcat (p-NP-C2): 30.8 s⁻¹ | kcat/Km (p-NP-C2): 20500 s⁻¹ M⁻¹ | Km (p-NP-C3): 700 µM | kcat (p-NP-C3): 30.9 s⁻¹ | kcat/Km (p-NP-C3): 44100 s⁻¹ M⁻¹ | Km (p-NP-C4): 500 µM | kcat (p-NP-C4): 30.9 s⁻¹ | kcat/Km (p-NP-C4): 61800 s⁻¹ M⁻¹ | Km (p-NP-C5): 260 µM | kcat (p-NP-C5): 20.5 s⁻¹ | kcat/Km (p-NP-C5): 78800 s⁻¹ M⁻¹ | Km (p-NP-C6): 220 µM | kcat (p-NP-C6): 6.2 s⁻¹ | kcat/Km (p-NP-C6): 28200 s⁻¹ M⁻¹ | Km (p-NP-C8): 160 µM | kcat (p-NP-C8): 0.21 s⁻¹ | kcat/Km (p-NP-C8): 1310 s⁻¹ M⁻¹
